The source of these data is patent US20220332804A1 (CSL INNOVATION, published 2022).

What all share (experiment): SPR, KD relative to WT C2;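 note: biacore SPR at 37 °C, anti-C2 mAbs captured via immobilised goat anti-human IgG, C2 alanine or serine surface mutants as analytes, 1:1 model fitted, double-referenced sensograms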
Background: In SPR one partner is held on a chip, and binding of the other changes the refractive index at the surface.

The target in assay [1] is T1, human C2 Q489A (human, UniProt P06681 21-752).
T1 sequence: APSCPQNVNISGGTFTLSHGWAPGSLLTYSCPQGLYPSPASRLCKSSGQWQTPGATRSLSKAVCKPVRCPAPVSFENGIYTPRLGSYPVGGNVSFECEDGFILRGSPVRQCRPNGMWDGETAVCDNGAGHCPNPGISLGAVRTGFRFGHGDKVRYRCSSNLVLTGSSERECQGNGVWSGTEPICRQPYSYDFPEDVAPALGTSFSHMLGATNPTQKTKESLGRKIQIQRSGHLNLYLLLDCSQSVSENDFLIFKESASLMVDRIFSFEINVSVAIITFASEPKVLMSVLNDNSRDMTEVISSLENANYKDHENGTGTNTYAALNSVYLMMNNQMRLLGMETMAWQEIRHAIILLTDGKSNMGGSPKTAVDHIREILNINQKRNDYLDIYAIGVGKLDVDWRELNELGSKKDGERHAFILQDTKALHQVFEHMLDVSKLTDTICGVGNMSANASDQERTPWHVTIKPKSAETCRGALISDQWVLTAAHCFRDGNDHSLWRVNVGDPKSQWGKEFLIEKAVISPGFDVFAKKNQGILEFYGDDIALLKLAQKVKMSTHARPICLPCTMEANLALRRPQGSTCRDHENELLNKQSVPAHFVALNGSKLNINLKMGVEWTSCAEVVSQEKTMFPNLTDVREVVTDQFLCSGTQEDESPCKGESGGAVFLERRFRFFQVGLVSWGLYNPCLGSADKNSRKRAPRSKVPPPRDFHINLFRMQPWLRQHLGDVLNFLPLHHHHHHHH

Assay [2] deals with T2, human C2 H451A (human, UniProt P06681 21-752).
T2 sequence: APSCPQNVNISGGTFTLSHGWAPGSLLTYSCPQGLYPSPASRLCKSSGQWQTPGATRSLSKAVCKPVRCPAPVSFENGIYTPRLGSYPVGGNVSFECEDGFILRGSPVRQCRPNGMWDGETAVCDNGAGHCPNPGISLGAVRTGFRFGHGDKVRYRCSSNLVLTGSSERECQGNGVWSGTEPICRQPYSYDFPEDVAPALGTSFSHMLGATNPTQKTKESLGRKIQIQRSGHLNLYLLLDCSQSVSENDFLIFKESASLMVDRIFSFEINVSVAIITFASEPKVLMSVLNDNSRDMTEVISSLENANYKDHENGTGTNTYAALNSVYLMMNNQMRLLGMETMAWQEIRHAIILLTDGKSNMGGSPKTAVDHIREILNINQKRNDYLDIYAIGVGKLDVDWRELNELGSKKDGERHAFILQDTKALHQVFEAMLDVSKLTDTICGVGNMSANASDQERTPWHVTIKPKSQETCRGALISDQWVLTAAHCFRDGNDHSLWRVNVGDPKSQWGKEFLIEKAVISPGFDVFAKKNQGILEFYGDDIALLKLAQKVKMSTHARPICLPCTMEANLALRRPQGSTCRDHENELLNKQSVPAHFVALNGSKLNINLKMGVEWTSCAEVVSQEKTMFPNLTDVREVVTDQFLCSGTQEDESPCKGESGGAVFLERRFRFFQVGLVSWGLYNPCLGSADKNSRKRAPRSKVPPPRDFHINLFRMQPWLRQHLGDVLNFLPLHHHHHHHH

Assay [3] deals with T3, human C2 G432A (human, UniProt P06681 21-752).
T3 sequence: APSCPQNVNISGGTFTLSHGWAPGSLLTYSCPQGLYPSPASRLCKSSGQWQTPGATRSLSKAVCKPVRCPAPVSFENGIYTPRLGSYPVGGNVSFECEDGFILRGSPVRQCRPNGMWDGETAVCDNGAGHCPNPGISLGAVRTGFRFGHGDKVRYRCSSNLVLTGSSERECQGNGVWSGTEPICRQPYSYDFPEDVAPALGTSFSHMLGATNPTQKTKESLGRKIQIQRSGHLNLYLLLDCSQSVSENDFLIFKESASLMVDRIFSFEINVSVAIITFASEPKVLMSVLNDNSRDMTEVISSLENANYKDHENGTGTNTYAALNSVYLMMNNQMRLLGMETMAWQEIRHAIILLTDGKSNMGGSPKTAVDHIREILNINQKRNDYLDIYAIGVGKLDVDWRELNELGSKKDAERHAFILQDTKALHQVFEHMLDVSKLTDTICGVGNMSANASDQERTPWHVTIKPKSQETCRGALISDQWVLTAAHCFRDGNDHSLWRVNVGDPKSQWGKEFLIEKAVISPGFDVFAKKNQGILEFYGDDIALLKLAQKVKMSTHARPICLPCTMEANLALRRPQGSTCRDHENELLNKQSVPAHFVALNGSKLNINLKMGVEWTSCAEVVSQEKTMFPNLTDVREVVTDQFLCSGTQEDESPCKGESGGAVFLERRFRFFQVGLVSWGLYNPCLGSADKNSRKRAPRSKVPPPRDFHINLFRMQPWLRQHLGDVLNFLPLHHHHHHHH

Assay [4] addresses T4, human C2 R714A (human, UniProt P06681 21-752).
T4 sequence: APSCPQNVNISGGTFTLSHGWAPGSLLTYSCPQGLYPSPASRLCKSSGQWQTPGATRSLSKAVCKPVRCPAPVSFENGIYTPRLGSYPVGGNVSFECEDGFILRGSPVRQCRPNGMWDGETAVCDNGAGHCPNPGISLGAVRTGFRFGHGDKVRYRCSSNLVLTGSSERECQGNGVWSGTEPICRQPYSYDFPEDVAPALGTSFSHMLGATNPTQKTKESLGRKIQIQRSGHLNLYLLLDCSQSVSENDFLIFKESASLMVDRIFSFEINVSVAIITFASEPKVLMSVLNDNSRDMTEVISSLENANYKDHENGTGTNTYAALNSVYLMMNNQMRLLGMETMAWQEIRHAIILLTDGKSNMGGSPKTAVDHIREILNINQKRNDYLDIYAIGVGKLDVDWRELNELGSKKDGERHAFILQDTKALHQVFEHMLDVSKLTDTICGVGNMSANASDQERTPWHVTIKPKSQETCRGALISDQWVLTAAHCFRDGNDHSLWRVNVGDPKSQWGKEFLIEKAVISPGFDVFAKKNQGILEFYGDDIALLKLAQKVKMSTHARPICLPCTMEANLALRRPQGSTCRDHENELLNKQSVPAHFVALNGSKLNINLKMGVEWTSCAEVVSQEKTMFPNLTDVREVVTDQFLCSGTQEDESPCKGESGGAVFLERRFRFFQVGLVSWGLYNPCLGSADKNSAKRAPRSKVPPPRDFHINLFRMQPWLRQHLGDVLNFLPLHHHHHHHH

B1: RF16-226 (antibody, human IgG4 S228P, lambda)
heavy: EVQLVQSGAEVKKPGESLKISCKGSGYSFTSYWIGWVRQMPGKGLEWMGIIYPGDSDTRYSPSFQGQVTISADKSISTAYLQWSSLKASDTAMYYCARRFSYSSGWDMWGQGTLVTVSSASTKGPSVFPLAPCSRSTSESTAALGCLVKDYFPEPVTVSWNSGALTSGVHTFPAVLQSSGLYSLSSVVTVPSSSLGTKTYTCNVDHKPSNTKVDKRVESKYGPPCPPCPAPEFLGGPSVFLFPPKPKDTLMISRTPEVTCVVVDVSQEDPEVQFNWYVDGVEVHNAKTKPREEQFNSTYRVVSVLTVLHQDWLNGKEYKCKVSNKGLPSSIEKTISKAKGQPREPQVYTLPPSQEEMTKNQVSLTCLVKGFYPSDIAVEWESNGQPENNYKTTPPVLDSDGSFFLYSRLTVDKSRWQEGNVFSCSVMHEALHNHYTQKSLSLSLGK
light: SYELTQPPSVSVSPGQTARITCSGDALTSKYVAWYQQKSGLAPLLVIYEDTRRPSGIPAKFSGSSSGSVATLTISGAHGDDEADYYCYSTDASGHQRVFGGGTKLTVLSQPKAAPSVTLFPPSSEELQANKATLVCLISDFYPGAVTVAWKADGSPVKAGVETTKPSKQSNNKYAASSYLSLTPEQWKSHRSYSCQVTHEGSTVEKTVAPTECS
notes: pH-dependent anti-C2 antibody from a phage display library; also called WT
Turning to B1, the Fold diff in assay [1] was found to be 10 fold; in assay [2], 11 fold; in assay [3], 1 fold; in assay [4], 5 fold.
